Results as given in the nanobody polyreactivity screen of Harvey et al. (2022).

Assay: yeast display, Sf9 membrane polyspecificity reagent, FACS + sequencing; frameworks hold sequencing errors
Procedure, shortened: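 A nanobody's polyreactivity label depends on the gate it was sorted from. Yeast display cells were stained with 10% biotinylated, detergent-solubilized Sf9 membrane reagent for 1 hour at 4 °C, enriched on streptavidin microbeads and sorted by FACS. The low and high (top ~1%) gates were set on anti-HA fluorescence for expression and streptavidin fluorescence for reagent binding.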

Row | Sequence | polyreactivity (PSR sort gate)
1 | QVQLVETGGGLVQAGGILRLSCAASGLIFTGNVMGWYRQAPGKESELVAAISRSGGRTYYADSVKGRFTISRDNAKNTVYLQMNSLKPEDTAVYYCNKVSPERVYYGSYFRYYYWGQGTQVTVSS | high polyreactivity
2 | QVQLVETGGGLVQAGGILRLSCAASGRIFVVYAMGWYRQAPGKERELVASNSRGGRTYYADSVKGRFTISRDNEKNTVYLQMNILKTEDTAVYYCAVVVFLKNRDLFDYWGQGTQVTVSS | low polyreactivity
3 | QVQLVETGGGLVQAGGSLHLSCAASGIIIYANDMGWYRQAPGKERELVAGISRNGGRTYYADSVKGRFTISRDNAKNTVYLQMNSLKPEDTAVYYCAARGSYTSIFDYWGQGTQVTVSS | high polyreactivity
4 | QVQLVETGGGLVQAGGSLLLSCAASGFTLLSYAMGWYRQAPGKERELVAAISESGVSTSYADSVKGRFTISRDNAKNTVYLQMKSLKPEDTAFYYCNKSDFWVVIYDSWGQGTQVTVSS | low polyreactivity
5 | QVQLVETGGGLVQAGGSLRISCAASGFTISFYAMAWYRHAPGKERELVAAISSGGRTSYADSVKGRFTISRDNAKNTVYLQMNSLTPEATAVYYCAATNRWYYRAAAAVYAFGYWGHGTQVTVSS | high polyreactivity
6 | QVQLVETGGGLVQAGGSLRISCAASGIIYVDNVMGSYRQAPGKERELVAAIDYSGGSTYYADSVKGRFTISRDNAKNNVYFQMNSLKPEDTAVYYCHARTYYGYGMDYWGQGTQVTVSS | low polyreactivity
7 | QVQLVETGGGLVQAGGSLRLSCAASGATFNANGMGWYRQAPGKERELVAAISQRAGRTYYADSVKGRFTISRDNAKNTVYLQMNSLKPEDTAVYYCAARYLGGYYFRYYYWGQGTQVTVSS | high polyreactivity
8 | QVQLVETGGGLVQAGGSLRLSCAASGFIFRGNAMGWYRQAPGKERELVAAISKRGGSTNYADSVKGRFTISRDNAKNTVYLQMNSLKPEDTAVYYCNAEGIYRQPRGYVYRYDYWGQGTQVTVSS | high polyreactivity
9 | QVQLVETGGGLVQAGGSLRLSCAASGFIFYPYDMGWYRQAPGKERELVAAITQSGGSTYYADSVKGRFTISRDNAKNTVYLQMNSLKQVDTAVYYCAADYAVWHRGQVVEIYDYWGQGTQVTVSS | low polyreactivity
10 | QVQLVETGGGLVQAGGSLRLSCAASGFILDYNAKGWYRQAPGKERELVAAITSGGSTNYSDSVKGRFTISRDNAKNTVYLQMNSLKPEDTAVYYCNVRSVSPVHDDGSWGQGTQVTVSS | low polyreactivity
11 | QVQLVETGGGLVQAGGSLRLSCAASGFTFYYYAMGWYRQAPGKERELVAAINRSGGSTYYADSLKGRFTISRDNAKNTVYLQMNSLKPEDTAVYYCAAPYVGGSSHGYWGQGTQVTVSS | high polyreactivity
12 | QVQLVETGGGLVQAGGSLRLSCAASGFTIRRYTMGWYRQAPGKERELVAAITRGVRTYYADSVKGRFTISRDNAKNTVYLQMNSLKPEDTAVYYCNTAQQSERDYWGQGTQVTVSS | high polyreactivity
13 | QVQLVETGGGLVQAGGSLRLSCAASGGIFLVNDMGWYRPAPGKERELVAAISGSGGSTYYADSVKGRVTISRDNAKNTVYLQMNSLKPEDTAVYYCAAVGTHKAGGAYNYWGQGTQVTVSS | low polyreactivity
14 | QVQLVETGGGLVQAGGSLRLSCAASGGIIRVYVMGWYIQAPGKERELVAAISRRGGSTYYADSVKGRFTISRDNAKNTVYLKMNSLKPEDTAVYYCAAYSTGTEFDYWGQGTQVSVSS | high polyreactivity
15 | QVQLVETGGGLVQAGGSLRLSCAASGIFVSYAMGWYRQAPGKERELVAAIRYSGDSTYYADSVKGRFTISRDNAKNTVYLQMNSLKPEDTAVYYCAATKGWSRYEYWGQGTQVTVSS | low polyreactivity
16 | QVQLVETGGGLVQAGGSLRLSCAASGIIFSKYAMGRYRQAPGKERELVAAITRSGGSTYYADSVKGRFTISRDNAKNTVYLQMNSLKPEDTAVYYCAKRSGTPTNRQRYGYWGQGTQVTVSS | high polyreactivity
17 | QVQLVETGGGLVQAGGSLRLSCAASGITIRPYTMGWYRQAPGKERELVARISRRGGSTYYADSVKGRFTISRDNAKNTVYLQMNSLKPEDTAVYYCATRSRAHISPYDYWGQGTQVTVSS | high polyreactivity
18 | QVQLVETGGGLVQAGGSLRLSCAASGLILGGYAMGWYRQAHGKERELVAAITRGGGSTFYADSVKGRFTISRDNAKNTVYLQMNSLKPEDTAVYYCAKRYPYRPPGPRYRGLSGYVYWGQGTQVTVSS | high polyreactivity
19 | QVQLVETGGGLVQAGGSLRLSCAASGLTFDENAMGWYRQAPGINYSGASTYYADSVKGRFTISRDNAKNTVYLQMNSLKPEDTAVYYCAAEVVAQMNYWGQGTQVTVSS | low polyreactivity
20 | QVQLVETGGGLVQAGGSLRLSCAASGNIFRAYPMGWYRQAPGKERELVARINSGAITNYADSVKGRFTISRDNAKNTVYLQMNSLKPDDTAVYYCARDTQYPYYFLMDYWGQGTQVTVSS | low polyreactivity
21 | QVQLVETGGGLVQAGGSLRLSCAASGPTFYANAKGWYRQAPGKERELVAVISWGSGSTYYADSVKGRFTISRDNAKNTVYLQMNSLKPEDTAVYYCAKSFYYEGTGDYWGQGTQVTVSS | low polyreactivity
22 | QVQLVETGGGLVQAGGSLRLSCAASGRIFGSYAMGWYRQAPGKERELVASIRSGGRTKYADSVKGRFTISRDNAKNTVYFQMNSLKPEDTAVYYCAVPIEWDYGYWGQGTQVTVSS | low polyreactivity

Row | Sequence | polyreactivity (PSR sort gate)
23 | QVQLVETGGGLVQAGGSLRLSCAASGRIFHLYAMGWYRQAPGKERELVAAITFSGGSTYYADSVKGRFTISRDTAKNTVYLQMNSLKPEDTAVYYCAKRSFYWFSSRLPFKYDYWGQGTQVTVSS | low polyreactivity
24 | QVQLVETGGGLVQAGGSLRLSCAASGRNYTYTMGWYRQAPGKERELVAAITYSGGSTYYADSVKGRFTISRDNAKNTVYLQMNSLKPEDTAVYYCAAVGRWPRYYYWGQGTQVTVSS | high polyreactivity
25 | QVQLVETGGGLVQAGGSLRLSCAASGRPFHRYALGWYRQAPGKDRALGAAISRGGITYYADSVKGRFTISRDNAKNTVYLQMNSLKPEDTAVYYCAALYRYYHESSPFDYWGQGTQVTVSS | high polyreactivity
26 | QVQLVETGGGLVQAGGSLRLSCAASGRTFDPNAMGWYRQAPGKERELVAAIDWTGGRTYYADSVKGRFTISRDNAKNTVYLQMNSLKPEDTAVYYCAARYYRFRSSRDYWGQGTQVTVSS | high polyreactivity
27 | QVQLVETGGGLVQAGGSLRLSCAASGRTFEGNAMGWYRQAPGKERELVAAISGSGGRTYYADSVKGRFTISRDNAKYTVYLQMNSLKPEDTAVYYETLYSVYNPRRFNYWGQGTQVTVSS | high polyreactivity
28 | QVQLVETGGGLVQAGGSLRLSCAASGRTFGIYAMGWYRQAPGKERELVAANTGRGGSTHYADSVKGRFTISRDNAKNTVYLQMNSLKPEDTEVYYGAADYRYNRGITSNKDYDYWGQGTQVTVSS | low polyreactivity
29 | QVQLVETGGGLVQAGGSLRLSCAASGRTFVYNGMGWYRQAPGKERELVAAISGSGGSTYYADSVKGRFTISRDNAKNTVYLQMNSLKPEDTAVYYCATRQGYRLYYWGQGTQVTVSS | high polyreactivity
30 | QVQLVETGGGLVQAGGSLRLSCAASGRTLWSYVMGWYIQAPGKERELVAAITSGGTTYYADSVKGRFTISRDNAKNTFYFQMNSLKPEDTAVYSCNVYTKFVYAYDYWGQGTQVTVSS | high polyreactivity
31 | QVQLVETGGGLVQAGGSLRLSCAASGSIFFDYAKGWSRQAPGKERELVAAIRWSGGRTSYADSVKGRFTISRDNAKNSVYLQMNSVKPEDTAVYYCSARWNRVRYGFDYWGQGTQVTVSS | high polyreactivity
32 | QVQLVETGGGLVQAGGSLRLSCAASGSIFLYYAMGWYRQAHGKERELVAAITSGGSTNYADSVKGRFTISRDNAKNTVYLQMNSLKPEDTAVYYCAARHPYRFWGQGTKVTVSS | high polyreactivity
33 | QVQLVETGGGLVQAGGSLRLSCAASGSIFVTNAMGWYRQPPGKEREFVAAISSSDDSTYYADSVKGRFTISRDNAKNTVYLQMHSLKPEDTAVYYCASDWLFNIIAYDYGLDSWGQGTQVTVSS | low polyreactivity
34 | QVQLVETGGGLVQAGGSLRLSCAASGSTFRYYAMGWYRQAPGTERELVAGISSNGGRTYYADSVKWRFTISRDNAKNTVYLQMNILKPEDTAVYYCNAGPYSRLYGDRDYDYWGQGTQVTVSS | high polyreactivity
35 | QVQLVETGGGLVQAGGSLRLSCAASGSTFVYNAMGWYRPAPGNERELVAAITNSGSTYYADSVKGRFTISRDNAKNTVYLQMNSLKPEDTAVYDCAARSRVYWARSGYWGQGTQVTVSS | low polyreactivity
36 | QVQLVETGGGLVQAGGSLRLSCAASGSTFYYNAMGWYRQAPGKERELVARITRSGGSTYADSVKGRFTISRDNAKNSVYLQMNSLKPEVTAVYYWNADAYGTPEFTSYALRYDYWGQGTQVTVSS | low polyreactivity
37 | QVQLVETGGGLVQAGGSLRLSCAASGYTFASNDMVWYRQAPGKERELVAAITKGGGRTYYADSVKGRFTISRDNAKNTVYLQMNRLKPEDTAVYFCAARQLIKYDYCGQGTQVTVSS | low polyreactivity
38 | QVQLVETGGGLVQAGGSLRLSCAASVRIIWGNAMGWYRQAPGTERELVAALRASGGSTHYADSVKGRFTISRDNAKKTVYFQINSLKPEDTAVYYCIAVKRVGAYWGRSFAYYYWGQGTQVTVSS | high polyreactivity
39 | QVQLVETGGGLVQAGGSLRLSCAAYGSIFIGYAMGWYRQAPGKERELVAAISNSGGRTYYADSVKGRFTISRDNAKNTVYLQMNSLKPEDTEVYYCNVDYRIPYRMDYWGQGTQVTVSS | high polyreactivity
40 | QVQLVETGGGLVQAGGSLRLSCADSGFIFRYYAMGRYRQAPGKERELVAAISSRGASTYYADSVKGRFTISRDNEKNTVYLQMNRLKPEDTAVYDCNARFNRASEMDYWGQGTQVTVSS | high polyreactivity
41 | QVQLVETGGGLVQAGGSLRLSCAGSGSTFTSYVMGWYRQAPGKERELVAAITSSGGDTYYADSVKGRFTISRDNAKNTVYLQMNSLKPEVTAVYYCATRSYYRSSYYRNRYPYDYWGQGTQVTVSS | low polyreactivity
42 | QVQLVETGGGLVQAGGSLRLSCAPSGRTFYYYAMGWYRQAPGKERELVAAISYSVGSTYYADSVKGRFTISRDNAKTTVYLQMNSLKPEDTEVYYCAASRASSSRGEYYYWGQGTLVTVSS | low polyreactivity
43 | QVQLVETGGGLVQAGGSLRLSCASSGITFYRYGKGRYRQAPGKERELVAAITYNGGGTYYADSVKGRFTISRDNAKNTVYLQMNSLKPEDTAVYYCATLRPYAYPQYDSWGQGTQVTVSS | high polyreactivity
